Results published in publication PMC3460625 (PLoS Pathogens, 2012).

Target: T1, Nup98 (endogenous) (human (endogenous in HEK 293 and HeLa), UniProt P52948 1-880)
T1 construct: also called nucleoporin Nup98
T1 sequence (looked up): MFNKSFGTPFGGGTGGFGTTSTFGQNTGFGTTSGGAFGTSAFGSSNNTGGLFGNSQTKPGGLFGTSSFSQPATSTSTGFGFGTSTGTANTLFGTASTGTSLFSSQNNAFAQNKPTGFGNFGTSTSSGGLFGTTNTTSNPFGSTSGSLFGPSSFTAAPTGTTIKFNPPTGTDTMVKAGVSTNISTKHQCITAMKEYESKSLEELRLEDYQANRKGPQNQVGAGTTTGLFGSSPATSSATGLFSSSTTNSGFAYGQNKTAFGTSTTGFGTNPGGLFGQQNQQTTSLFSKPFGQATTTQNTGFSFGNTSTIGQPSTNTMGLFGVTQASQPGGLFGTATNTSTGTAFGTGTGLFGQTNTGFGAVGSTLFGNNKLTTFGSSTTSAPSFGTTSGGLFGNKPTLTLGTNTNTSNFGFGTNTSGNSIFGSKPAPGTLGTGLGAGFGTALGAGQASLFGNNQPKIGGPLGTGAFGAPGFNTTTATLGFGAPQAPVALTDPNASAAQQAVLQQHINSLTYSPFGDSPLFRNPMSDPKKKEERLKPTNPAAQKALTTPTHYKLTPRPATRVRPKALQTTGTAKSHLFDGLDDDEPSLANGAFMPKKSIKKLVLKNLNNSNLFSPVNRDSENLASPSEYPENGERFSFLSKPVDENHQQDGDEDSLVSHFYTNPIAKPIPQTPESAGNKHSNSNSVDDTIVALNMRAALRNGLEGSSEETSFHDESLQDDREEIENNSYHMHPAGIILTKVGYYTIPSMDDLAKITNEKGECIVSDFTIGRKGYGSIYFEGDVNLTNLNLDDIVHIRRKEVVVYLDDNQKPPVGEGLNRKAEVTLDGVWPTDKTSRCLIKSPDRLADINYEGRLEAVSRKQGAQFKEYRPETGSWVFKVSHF
Assay: SEC + other: sucrose gradient sedimentation
Settings: partners not purified

B1: Rae1 (endogenous) (natural protein, human (endogenous in HEK 293 and HeLa), UniProt P78406 1-368, looked up)
chain: MSLFGTTSGFGTSGTSMFGSATTDNHNPMKDIEVTSSPDDSIGCLSFSPPTLPGNFLIAGSWANDVRCWEVQDSGQTIPKAQQMHTGPVLDVCWSDDGSKVFTASCDKTAKMWDLSSNQAIQIAQHDAPVKTIHWIKAPNYSCVMTGSWDKTLKFWDTRSSNPMMVLQLPERCYCADVIYPMAVVATAERGLIVYQLENQPSEFRRIESPLKHQHRCVAIFKDKQNKPTGFALGSIEGRVAIHYINPPNPAKDNFTFKCHRSNGTNTSAPQDIYAVNGIAFHPVHGTLATVGSDGRFSFWDKDARTKLKTSEQLDQPISACCFNHNGNIFAYASSYDWSKGHEFYNPQKKNYIFLRNAAEELKPRNKK
notes: also called host Rae1; cellular Rae1
With B1 the “stoichiometry N” value was 1.
